Reference: patent US20070036810A1, “Cyclic amp response element activator proteins and uses related thereto” (priority 2003, published 2007)

Experiments:
[1] = system: Drosophila CRE (CRE-hsp-Luc reporter); assay: CRE-hsp-Luc reporter assay in Drosophila S2 cells; type: cell-based, Drosophila melanogaster; settings: 48 hours post-transfection
Source text: The amplified product was inserted into the Drosophila P-element transformation vector, pUAST (Brand and Perrimon, Development 118:401-415 (1993)). The final construct pUAS-dCREAP was used for transfection experiments in Drosophila melanogaster Schneider cells (S2). A firefly luciferase reporter was created which contained 4 copies of the drosophila CRE enhancer element (SEQ ID 39) (Eresh, S. et. Al. EMBO J. 16:2014-2022 (1997)) followed by hsp70 minimal promoter.
The S2 cells were transfected in 6 well plates (Costar) by the CaPO4 method (Bunch, T. and Goldstein, L. Nucleic Acids Res. 17:9761-9782 (1989)). A total of 25 ug of DNA was transfected into a 6-well dish containing 4 mls of cells (˜1×10^6 cells/ml). The transfection mix was removed after 18 hr and the luciferase assays were performed 48 hrs later. The UAS-transgenes were activated by co-transfection with the Actin promoter-Gal4 plasmid provided by Dr. Norbert Perrimon. The transfection efficiency was normalized co-transfection with hsp^mln Renilla luciferase driven by minimal heat shock promoter (made according to conventional methods). Luciferase activity was measured using the Dual-luciferase assay kit (Promega). […] Data were calculated as fold induction compared to the reporter gene's activity measured in the cells designated as negative control.

[2] = target: T1, ATF2-GAL4 fusion molecule (Homo sapiens, UniProt P15336); assay: In vivo kinase assay, ATF2-GAL4 fusion in HLR cells; type: cell-based; settings: 40 hours after transfection
T1 construct: host or cells: HLR cell line (5x GAL4 element-luciferase reporter)
T1 sequence (P15336 with tags, fused parts or gaps limits assumed): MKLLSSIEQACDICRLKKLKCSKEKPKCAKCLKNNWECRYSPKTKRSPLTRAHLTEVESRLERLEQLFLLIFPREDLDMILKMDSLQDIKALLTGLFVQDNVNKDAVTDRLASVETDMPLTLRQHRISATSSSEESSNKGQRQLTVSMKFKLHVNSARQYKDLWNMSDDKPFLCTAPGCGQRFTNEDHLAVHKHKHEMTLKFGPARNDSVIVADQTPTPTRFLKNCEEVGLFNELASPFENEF
Method: For in vivo kinase assay, activation domains of CREB or ATF2 transcription factors fused with the yeast GAL4 DNA binding domain (1-147 Amino Acids) constructs are used (Stratagene, PathDetect In Vivo Signal Transduction Pathway trans-reporting Systems). The HLR cell line that contains a 5× GAL4 DNA binding element and TATA box driving luciferase reporter is used per manufacturer's protocol (Stratagene). 10^4 HLR cells are split into each well of 96 well tissue culture plates. After 16 hours, cells are transfected with 100 ng of Creb-GAL4 or ATF2-GAL4 fusion constructs, 30 ng of Renilla luciferase control plasmid together with 100 ng of pCMVSPORT6, pCMVSPORT-CREAP1, pFC-PKA or pFC-MEKK (Stratagene) activator plasmids respectively. Transfection is done with Fugene6 reagent (Roche Molecular Biochemicals, Basel, Switzerland) according to the manufacturers manual. Forty hours after transfection, a Dual-Glo Luciferase assay (Promega) is conducted using the manufacturer's protocol.
As CREAP1 strongly activates CRE promoter transcription, we next investigated whether CREAP1 works through the CREB pathway. […]

human IL-8 promoter = assay: pGL2-IL-8p-Luc reporter inducibility in HEK 293 cells; type: cell-based; settings: expression construct co-transfected into HEK 293 cells, 48 hours post transfection
Method: A luciferase reporter controlled by a 1.5 kB IL-8 promoter containing fragment of human IL-8 promoter was tested for inducibility by known regulators of cytokine-mediated gene expression. pNF-κB-Luc (BD Biosciences) and pGL2-IL-8p-Luc reporters were co-transfected into HEK 293 cells with expression constructs encoding known activators of the NF-κB pathway, truncated MEKK (AA 360-672) (Stratagene) and a full length TRAF6 cDNA made according to conventional methods using a proprietary clone collection. Cells co-transfected with empty pCMV-Sport6 vector were either left untreated or treated with TNFα (50 ng/ml, for 16 hours). Luciferase activity was measured 48 hours post transfection. The pNF-κB-Luc reporter was used as a positive control.

| Molecule | Fold Activation ([1]; CRE-hsp-Luc reporter (4 copies of Drosophila CRE)) | Fold Activation ([1]; hsp-Luc reporter without CRE) | stimulation of ATF2 fusion [2] | increase of IL-8 promoter-reporter activity (human IL-8 promoter) |
| --- | --- | --- | --- | --- |
| dCREAP: Drosophila CREAP gene product, 797 amino acids, SEQ ID NO 27; expressed from pUAS-dCREAP (protein, drosophila melanogaster) MANPRKFSEKIALQKQKQAEGTAEFERIMKEVYATKRDEPPANQKILDGLVGGQEVSQSSPGAGNGTGGGGSGSGSGASGGGASPDGLGGGGGSPTAYRESRGRSVGVGPMRRPSERKQDRSPYGSSSTQQTLDNGQLNPHLLGPPTAESLWRRSSSDSALHQSALVAGFNSDVNSMGANYQQQQHQQQQQPGQPRSHSPHHGINRTMSPQAQRRKSPLLQPHQLQLQQLQQQQQQMQHQHQLHQQLQMQQLQQHQQQHQQQQQQQNTPYNNAKFTNPVFRPLQDQVNFANTGSLPDLTALQNYGPQQQQQQSQQQPSQQQQQLQQTLSPVMSPHNHRRERDQSPSPFSPAGGGGGAGPGSPYQQQQHSPTGNTQQQQQQHQQPSNSPHLSFTNLATTQAAVTTFNPLPTLGPHNATDYRQPPNPPSPRSSPGLLSSVSATDLHSSAPASPIRQQQQAHQQQQQQQQAQQQQQQFDNSYNSLNTSFHNQFEIFSLGDSNSSPEQQGFANNFVALDFDDLSGGGGGGPSGGGGSNGGGLTNGYNKPEMLDFSELSGSPEASGNNNHMRRGVSNLNNNGLSNGVVGSTHNGSTNLNGAGNNNSSSGGGTAQDPLGITTSPVPSPLGCPSSPLPIPIPMSAQSSPQQQHHHHQQQQQQHHQQQHHQQQQLSLSLHHSPHHSPMHSPHHGNSPLSSSSPVSHNACSNSNVVMNHQQQQQQHHHQQHHHQGSSQSHTPTTANIPSIIFSDYSSNADYTREIFDSLDLDLGQMDVAGLQMLSDQNPIMIADPNIEDSFRRDLN | 136.04 | 0.96 |  |  |
| MEKK: truncated MEKK (AA 360-672) expression construct (Stratagene), known activator of the NF-κB pathway (protein, UniProt Q13233 360-672, looked up, fragment) FVMLRVFQLEPSDPMLWRKTLKNFEVESLFQKYHSRRSSRIKAPSRNTIQKFVSRMSNSHTLSSSSTSTSSSENSIKDEEEQMCPICLLGMLDEESLTVCEDGCRNKLHHHCMSIWAEECRRNREPLICPLCRSKWRSHDFYSHELSSPVDSPSSLRAAQQQTVQQQPLAGSRRNQESNFNLTHYGTQQIPPAYKDLAEPWIQVFGMELVGCLFSRNWNVREMALRRLSHDVSGALLLANGESTGNSGGSSGSSPSGGATSGSSQTSISGDVVEACCSVLSMVCADPVYKVYVAALKTLRAMLVYTPCHSLAE |  |  | more than 100 fold | 16 times |
